{"source": "the Human Domainome abundance scans (Beltran et al. 2025)", "parents": {"B1": {"name": "Gamma-crystallin C, residues 91 to 170; numbered along this chain, P07315 (parent)", "chain": "RLYEREDHKGLMMELSEDCPSIQDRFHLSEIRSLHVLEGCWVLYELPNYRGRQYLLRPQEYRRCQDWGAMDAKAGSLRRV"}}, "note": "± gives the uncertainty stated by the source."}
{"variants_of": "B1", "assay": "abundance fitness (aPCA) (normalised: wild type 0, dead -1); higher = more abundant; growth selection in yeast, the domain comes from the species named", "settings": "Homo sapiens"}
{"variant": "G75D", "abundance fitness": "-0.705 ± 0.21"}
{"variant": "G75T", "abundance fitness": "-0.949 ± 0.43"}
{"variant": "G75Q", "abundance fitness": "-0.746 ± 0.21"}
{"variant": "G75V", "abundance fitness": "-0.815 ± 0.17"}
{"variant": "G75N", "abundance fitness": "-0.767 ± 0.46"}
{"variant": "G75L", "abundance fitness": "-0.826 ± 0.27"}
{"variant": "G75E", "abundance fitness": "-0.984 ± 0.49"}
{"variant": "G75C", "abundance fitness": "-0.516 ± 0.25"}
{"variant": "G75H", "abundance fitness": "-0.736 ± 0.47"}
{"variant": "G75A", "abundance fitness": "-0.607 ± 0.095"}
{"variant": "G75W", "abundance fitness": "-0.989 ± 0.26"}
{"variant": "Q53T", "abundance fitness": "-0.197 ± 0.12"}
{"variant": "Q53S", "abundance fitness": "0.074 ± 0.056"}
{"variant": "Q53Y", "abundance fitness": "-0.159 ± 0.096"}
{"variant": "Q53R", "abundance fitness": "-0.092 ± 0.051"}
{"variant": "Q53W", "abundance fitness": "-0.225 ± 0.11"}
{"variant": "Q53V", "abundance fitness": "-0.747 ± 0.18"}
{"variant": "A72P", "abundance fitness": "-0.007 ± 0.063"}
{"variant": "A72S", "abundance fitness": "-0.058 ± 0.064"}
{"variant": "A72N", "abundance fitness": "-0.066 ± 0.17"}
{"variant": "A72M", "abundance fitness": "-0.997 ± 0.35"}
{"variant": "A72F", "abundance fitness": "-0.5 ± 0.12"}
{"variant": "A72V", "abundance fitness": "-0.554 ± 0.15"}
{"variant": "A72T", "abundance fitness": "-0.207 ± 0.071"}
{"variant": "A72W", "abundance fitness": "-0.365 ± 0.12"}
{"variant": "A72Y", "abundance fitness": "-0.452 ± 0.26"}
{"variant": "A72G", "abundance fitness": "-0.118 ± 0.047"}
{"variant": "A72R", "abundance fitness": "-0.782 ± 0.093"}
{"variant": "A72I", "abundance fitness": "-0.745 ± 0.23"}
{"variant": "A72H", "abundance fitness": "-0.375 ± 0.15"}
{"variant": "E60K", "abundance fitness": "-0.197 ± 0.18"}
{"variant": "E60A", "abundance fitness": "0.045 ± 0.06"}
{"variant": "E60I", "abundance fitness": "-0.219 ± 0.18"}
{"variant": "E60H", "abundance fitness": "-0.174 ± 0.095"}
{"variant": "E60V", "abundance fitness": "-0.117 ± 0.09"}
{"variant": "E60L", "abundance fitness": "-0.001 ± 0.047"}
{"variant": "E60R", "abundance fitness": "0.006 ± 0.071"}
{"variant": "E60C", "abundance fitness": "-0.172 ± 0.1"}
{"variant": "E60T", "abundance fitness": "-0.081 ± 0.07"}
{"variant": "E60W", "abundance fitness": "-0.206 ± 0.084"}
{"variant": "E60M", "abundance fitness": "-0.162 ± 0.13"}
{"variant": "E60Y", "abundance fitness": "-0.069 ± 0.14"}
{"variant": "E60D", "abundance fitness": "-0.235 ± 0.19"}
{"variant": "E60F", "abundance fitness": "-0.468 ± 0.35"}
{"variant": "E60S", "abundance fitness": "-0.018 ± 0.067"}
{"variant": "E60Q", "abundance fitness": "0.034 ± 0.1"}
{"variant": "E60P", "abundance fitness": "-0.142 ± 0.062"}
{"variant": "R57D", "abundance fitness": "-0.174 ± 0.14"}
{"variant": "R57I", "abundance fitness": "-0.566 ± 0.43"}
{"variant": "R57C", "abundance fitness": "-0.215 ± 0.13"}
{"variant": "R57V", "abundance fitness": "-0.14 ± 0.051"}
{"variant": "R57S", "abundance fitness": "0.018 ± 0.065"}
{"variant": "R57G", "abundance fitness": "-0.134 ± 0.061"}
{"variant": "R57W", "abundance fitness": "-0.179 ± 0.092"}
{"variant": "R57K", "abundance fitness": "-0.148 ± 0.24"}
{"variant": "R57M", "abundance fitness": "-0.297 ± 0.097"}
{"variant": "R57H", "abundance fitness": "-0.034 ± 0.1"}
{"variant": "R57A", "abundance fitness": "0.003 ± 0.078"}
{"variant": "R57Q", "abundance fitness": "-0.045 ± 0.13"}
{"variant": "R57E", "abundance fitness": "-0.064 ± 0.1"}
{"variant": "R57F", "abundance fitness": "-0.067 ± 0.23"}
{"variant": "R57T", "abundance fitness": "0.052 ± 0.091"}
{"variant": "R57N", "abundance fitness": "0.021 ± 0.16"}
{"variant": "R57L", "abundance fitness": "-0.24 ± 0.12"}
{"variant": "L56I", "abundance fitness": "-0.515 ± 0.25"}
{"variant": "L56W", "abundance fitness": "-0.988 ± 0.18"}
{"variant": "L56Y", "abundance fitness": "-0.926 ± 0.35"}
{"variant": "L56R", "abundance fitness": "-0.836 ± 0.1"}
{"variant": "L56G", "abundance fitness": "-0.928 ± 0.11"}
{"variant": "L56P", "abundance fitness": "-0.931 ± 0.21"}
{"variant": "L56M", "abundance fitness": "-0.553 ± 0.23"}
{"variant": "L56T", "abundance fitness": "-0.636 ± 0.18"}
{"variant": "L56K", "abundance fitness": "-0.806 ± 0.44"}
{"variant": "L56H", "abundance fitness": "-0.953 ± 0.32"}
{"variant": "L56E", "abundance fitness": "-0.93 ± 0.41"}
{"variant": "L56A", "abundance fitness": "-0.939 ± 0.21"}
{"variant": "L56S", "abundance fitness": "-0.957 ± 0.18"}
{"variant": "G68R", "abundance fitness": "-0.764 ± 0.12"}
{"variant": "G68V", "abundance fitness": "-0.985 ± 0.29"}
{"variant": "G68L", "abundance fitness": "-0.529 ± 0.092"}
{"variant": "G68S", "abundance fitness": "-0.44 ± 0.11"}
{"variant": "G68A", "abundance fitness": "-0.721 ± 0.15"}
{"variant": "G68D", "abundance fitness": "-0.679 ± 0.27"}
{"variant": "G68T", "abundance fitness": "-1.01 ± 0.28"}
{"variant": "G68K", "abundance fitness": "-0.623 ± 0.26"}
{"variant": "G68P", "abundance fitness": "-0.784 ± 0.22"}
{"variant": "G68C", "abundance fitness": "-0.696 ± 0.48"}
{"variant": "G68Q", "abundance fitness": "-0.763 ± 0.2"}
{"variant": "C64L", "abundance fitness": "-0.841 ± 0.099"}
{"variant": "C64V", "abundance fitness": "-0.596 ± 0.091"}
{"variant": "C64Y", "abundance fitness": "-0.116 ± 0.15"}
{"variant": "C64A", "abundance fitness": "-0.144 ± 0.061"}
{"variant": "C64W", "abundance fitness": "-0.086 ± 0.17"}
{"variant": "C64S", "abundance fitness": "-0.285 ± 0.071"}
{"variant": "C64M", "abundance fitness": "-0.404 ± 0.12"}
{"variant": "C64G", "abundance fitness": "-0.597 ± 0.099"}
{"variant": "C64P", "abundance fitness": "0.014 ± 0.085"}
{"variant": "C64F", "abundance fitness": "-0.093 ± 0.14"}
{"variant": "C64H", "abundance fitness": "0.063 ± 0.1"}
{"variant": "C64Q", "abundance fitness": "-0.795 ± 0.23"}
{"variant": "C64R", "abundance fitness": "-0.653 ± 0.073"}
{"variant": "C64T", "abundance fitness": "-0.213 ± 0.25"}
{"variant": "Q65L", "abundance fitness": "-0.17 ± 0.073"}
{"variant": "Q65Y", "abundance fitness": "-0.149 ± 0.16"}
{"variant": "Q65V", "abundance fitness": "0.071 ± 0.11"}
{"variant": "Q65S", "abundance fitness": "-0.02 ± 0.059"}
{"variant": "Q65C", "abundance fitness": "-0.265 ± 0.11"}
{"variant": "Q65R", "abundance fitness": "-0.173 ± 0.061"}
{"variant": "Q65M", "abundance fitness": "-0.283 ± 0.12"}
{"variant": "Q65E", "abundance fitness": "-0.044 ± 0.15"}
{"variant": "Q65T", "abundance fitness": "-0.032 ± 0.074"}
{"variant": "Q65K", "abundance fitness": "-0.06 ± 0.12"}
{"variant": "Q65G", "abundance fitness": "-0.08 ± 0.1"}
{"variant": "Q65H", "abundance fitness": "-0.242 ± 0.2"}
{"variant": "Q65I", "abundance fitness": "-0.336 ± 0.27"}
{"variant": "Q65D", "abundance fitness": "-0.355 ± 0.2"}
{"variant": "Q65F", "abundance fitness": "-0.248 ± 0.15"}
{"variant": "Q65A", "abundance fitness": "-0.075 ± 0.049"}
{"variant": "Q65N", "abundance fitness": "-0.129 ± 0.16"}
{"variant": "Q65P", "abundance fitness": "-0.687 ± 0.089"}
{"variant": "L55H", "abundance fitness": "-0.053 ± 0.14"}
{"variant": "L55K", "abundance fitness": "-0.161 ± 0.17"}
{"variant": "L55S", "abundance fitness": "-0.08 ± 0.05"}
{"variant": "L55C", "abundance fitness": "-0.241 ± 0.15"}
{"variant": "L55D", "abundance fitness": "-0.441 ± 0.21"}
{"variant": "L55E", "abundance fitness": "-0.074 ± 0.14"}
{"variant": "L55G", "abundance fitness": "-0.082 ± 0.089"}
{"variant": "L55Q", "abundance fitness": "-0.067 ± 0.089"}
{"variant": "L55T", "abundance fitness": "0.1 ± 0.093"}
{"variant": "L55F", "abundance fitness": "-0.078 ± 0.12"}
{"variant": "L55M", "abundance fitness": "-0.01 ± 0.084"}
{"variant": "L55A", "abundance fitness": "-0.09 ± 0.086"}
{"variant": "L55Y", "abundance fitness": "0.161 ± 0.18"}
{"variant": "L55W", "abundance fitness": "-0.098 ± 0.092"}
{"variant": "L55V", "abundance fitness": "-0.087 ± 0.066"}
{"variant": "L55I", "abundance fitness": "0.075 ± 0.12"}
{"variant": "D71L", "abundance fitness": "-0.5 ± 0.078"}
{"variant": "D71R", "abundance fitness": "-0.224 ± 0.066"}
{"variant": "D71C", "abundance fitness": "-0.029 ± 0.11"}
{"variant": "D71G", "abundance fitness": "-0.165 ± 0.067"}
{"variant": "D71I", "abundance fitness": "-0.297 ± 0.18"}
{"variant": "D71W", "abundance fitness": "-0.281 ± 0.085"}
{"variant": "D71Y", "abundance fitness": "-0.134 ± 0.12"}
{"variant": "D71P", "abundance fitness": "-0.933 ± 0.35"}
{"variant": "D71F", "abundance fitness": "-0.148 ± 0.099"}
{"variant": "D71E", "abundance fitness": "-0.185 ± 0.11"}
{"variant": "D71S", "abundance fitness": "-0.015 ± 0.057"}
{"variant": "D71H", "abundance fitness": "-0.173 ± 0.11"}
{"variant": "D71M", "abundance fitness": "-0.443 ± 0.23"}
{"variant": "D71N", "abundance fitness": "-0.173 ± 0.18"}
{"variant": "D71A", "abundance fitness": "-0.483 ± 0.19"}
{"variant": "D71K", "abundance fitness": "-0.126 ± 0.078"}
{"variant": "D71T", "abundance fitness": "0.024 ± 0.12"}
{"variant": "Y54T", "abundance fitness": "-0.717 ± 0.17"}
{"variant": "Y54I", "abundance fitness": "-0.395 ± 0.21"}
{"variant": "Y54F", "abundance fitness": "-0.118 ± 0.22"}
{"variant": "Y54E", "abundance fitness": "-1.19 ± 0.48"}
{"variant": "Y54R", "abundance fitness": "-0.897 ± 0.11"}
{"variant": "Y54G", "abundance fitness": "-0.968 ± 0.32"}
{"variant": "Y54L", "abundance fitness": "-0.727 ± 0.15"}
{"variant": "Y54A", "abundance fitness": "-0.891 ± 0.23"}
{"variant": "Y54Q", "abundance fitness": "-0.783 ± 0.27"}
{"variant": "Y54P", "abundance fitness": "-1 ± 0.2"}
{"variant": "Y54S", "abundance fitness": "-0.614 ± 0.077"}
{"variant": "Y54M", "abundance fitness": "-0.692 ± 0.23"}
{"variant": "Y54W", "abundance fitness": "-0.36 ± 0.1"}
{"variant": "Y54K", "abundance fitness": "-0.76 ± 0.21"}
